Reference: publication PMC3005890

Biological target: teichuronic acid synthetase (TUAS) subunit B, 52.5 kDa (Micrococcus luteus (endogenous in ATCC 4698))
Assay: native gel or EMSA; endogenous TUAS co-purified from detergent-solubilised membranes; the active ~440 kDa band on a 3-12% native gradient polyacrylamide gel is separated by 9.5% SDS-PAGE into the 54 kDa and 52.5 kDa subunits; the complex carries lipids and pigments

stoichiometry N: 8
Substance: teichuronic acid synthetase (TUAS) subunit A, 54 kDa (natural protein)
